Results published in US20220340894A1 (CDR LIFE, published 2022).

B1: M0855 scFv (scFv)
scFv: QQQLEESGGGLVTPGTPLTLTCTVSGIDLSSYAMGWVRQAPGKGLEWIGTINDGGSAFYASWVKGRFTISRTSTTVDLKITSPTAEDTATYFCAKTYGTNGDVYWGYFNLWGQGTLVTISSGGGGSGGGGSGGGGSGGGGASELVMTQTPASVSEPVGGTVTIKCQASQSIGSNLAWYQQKPGQPPKLLIYYESILASGVPSRFSGSGSGTEYTLTISGAQADDAATYYCQQGYSSSNIDNAFGGGTEVVVK
notes: Rabbit scFv from the biopanning screen
B2: M0856 scFv (scFv)
scFv: QQQLEESGGGLVTPGTPLTLTCTVSGIDLSSYAMGWVRQAPGKGLEWIGTINDGGSAFYASWVKGRFTISRTSTTVDLKITSPTAEDTATYFCAKTYGTNGDVYWGYFNLWGQGTLVTISSGGGGSGGGGSGGGGSGGGGASELVMTQTPASVSEPVGGTVTIKCQASQSIGSNLAWYQQKPGQPPKLLIYYESILASGVPSRFSGSGSGTEYTLTISGAQADDAATYYCQQGYSSSNILNAFGGGTEVVVK
notes: as for B1
B3: M0865 scFv (scFv)
scFv: PAALMESGGRLVTPGTPLTLTCTVSGIDLSTFAMTWVRQAPGKGLEWLGIINTGGSAYYTSWAKGRFTISRTSTTVDLKITSPTTEDTATYFCARGDWSSATDLWGQGTLVTISSGGGGSGGGGSGGGGSGGGGASDPDMTQTPSSVSAAVGGTVTINCQASQSVYDNKVLAWYRQKPGQPPKLLIYKASTLASGVPSRFKGRGSGTQFTLTISGVQADDAATYYCLGEFSCSSADCHAFGGGTELEIL
notes: as for B1
B4: M0861 scFv (scFv)
scFv: QSVKESGGRLVTPGTPLTLTCTVSGFSLSNYAMSWVRQAPGKGLEYIGIVSSGGTTYYASWAKGRFTISKTSTTVDLKITSPTTEDTATYFCAKDLYYGPTTYSAFNLWGQGTLVTISSGGGGSGGGGSGGGGSGGGGASELVLTQPASVQVNLGQTVSLTCTADTLSRSYASWYQLKPGQAPVLLIYRDTSRPSGVPDRFSGSSSGNTATLTISGAQAGDEGDYVCATSDGSGSNFQLFGGGTQLTVTG
notes: as for B1
B5: M0849 scFv (scFv)
scFv: QEQLEESGGGLVTPGGTLTLTCTVSGFSLSNYAMGWVRQAPGKGLEWIGTINDGGTAFYAKWLKGRFTISRTSTTVDLKITSPTTEDTATYFCARAYGSNGDVYWGYFNLWGQGTLVTISSGGGGSGGGGSGGGGSGGGGASELVMTQTPSSVSEPVGGTVTIKCQASQSIGSNLAWYQQRPGQPPKLLIYSASTLASGVSSRFKGSGSGTESTLTISGVQAADAATYYCQQGYSSSNVDNVFGGGTELEIL
notes: as for B1
B6: M0854 scFv (scFv)
scFv: QSVKESWGRLVTPGGSLTLTCTVSGIDLNNYAMGWVRQAPGKGLEWIGTINNDGATYYPSWARGRFTISKTSTTVDLKITSPTTEDTATYFCARTYGSNGDVYWGYFNLWGQGTLVTVSSGGGGSGGGGSGGGGSGGGGASALELTQTPASVEVAVGGTVTINCQASQSIGGALNWYQQKSGQPPKLLIYLASTLASGVSSRFKGSGSGTQFTLTISGVEAADAATYYCQQGYSASNIDNAFGGGTEVVVK
notes: as for B1
B7: M0864 scFv (scFv)
scFv: QSVKESGGGLVTPGTPLTLTCTVSGFSLSTYAISWVRQAPGKGLEWIGFIDTVDSAYYASWAKGRFTISKTSSTTVDLKMTSPTTEDTATYFCAKLRYGDYGDYTLWGQGTLVTVSSGGGGSGGGGSGGGGSGGGGASELVMTQTPSPVSGAVGGTVTIKCQASQNIYSYLAWYQQKPGQPPKLLIYKASTLASGVPSRVKGSGSGTEYTLTISGVQAADAATYYCQCTYYDSNTFGGGTEVVVK
notes: as for B1
B8: M0848 scFv (scFv)
scFv: QEQLVESGGGLVTPGTPLTLTCTVSGFSLSSYAMGWVRQAPGKGLEWIGTINDGGTAFYASWVKGRFTISRTSTTVDLRVTSPTTEDTATYFCARAYGSNGDVYWGYFNLWGQGTLVTVSSGGGGSGGGGSGGGGSGGGGASELDLTQTPASVEVAVGGTVTIKCQASQSIGSYLSWYQQKPGQRPKLLIFRASTLASGVSSRFKGSGSGTQFTLTISGVECADAATYYCQQGYSSTNLDNVFGGGTEVVVK
notes: as for B1
B9: M0863 scFv (scFv)
scFv: PEQLMESGGGLVTPGGVLTLTCTASGFSFSSYGVNWVRQAPGKGLEWIGFIFGDGTTYYANWAKGRFTISKTSTTVDLKMTSPTTEDTATYFCARDGYGGYDYIINLWGQGTLVTVSSGGGGSGGGGSGGGGSGGGGASAQVLTQTPASVSAAVGGTVSISCQSSQSVVNNNWLAWYQQKPGQPPKLLIYKASTLESGVPSRFKGSGSGTQFTLTISGVQADDAATYYCQGAYSGNIYYNAFGGGTEVVVK
notes: as for B1
B10: M0850 scFv (scFv)
scFv: QEQLEESGGGLVTPGTPLTLTCTASGFSLSSYAMIWVRQAPGKGLEWIGTINDGGTAFYANWVKGRFTISRTSTTVDLKMTSPTTEDTATYFCARAYGSNGDVYWGYVNLWGQGTLVTVSSGGGGSGGGGSGGGGSGGGGASELVMTQTPASVSEPVGGTVTIKCQASQSIGSNLAWYQQKPGQPPKLLIYAAANLASGVSSRFKGSRSGTEYTLTISGVQAADAATYYCQQGYSSSNVANVFGGGTELEIL
notes: as for B1
B11: M0866 scFv (scFv)
scFv: QSVKESGGRLVTPGTPLTLTCTASGFTISSSAISWVRQAPGKGLEYIGIIRSGGTTDYASWAKGRFAISKTSTTVDLKITSPTTEDTATYFCARDPPYITSTYFDLWGQGTLVTVSSGGGGSGGGGSGGGGSGGGGASELVLTQPQSVSGSLGQTVSISCKRARDSVESYDVHWYQQHPGKTPTIVIYKDDQRPSGVPDRFSGSIDSTSNSASLTITGLLAEDEADYFCQSFDGDAVVFGGGTQLTVTG
notes: as for B1
B12: M0853 scFv (scFv)
scFv: QQQLVESGGGLVTPGTPLTLTCTVSGFSLSNYAMGWVRQAPGKGLEWIGTINDGGTAFYANWLKGRFTISRTSTTVDLKITSPTTEDTATYFCARAYGSNGDVYWGYFNLWGQGTLVTVSSGGGGSGGGGSGGGGSGGGGASELVMTQTASPVSAAVGGTVTINCQASQSISSRSLSWYQQKPGQPPKLLIYEASKLASGVPSRFSGSGSGTQFTLTISGVQADDAATYYCQQGYSSSNVDNFGGGTEVVVK
notes: as for B1
B13: M0862 scFv (scFv)
scFv: PEQLMESGGGLVTPGGVLTLTCTASGFSFSSYGVNWVRQAPGKGLEWIGFIFGDGTTYYANWAKGRFTISKTSTTVDLKMTSPTTEDTATYFCARDGYGGYDYIINLWGQGTLVTVSSGGGGSGGGGSGGGGSGGGGASAQVLTQTPASVSAAVGGTVSISCQSSQSVVNNNWLAWYQQKPGQPPKLLIYKASTLESGVPSRFKGSGSGTQFTLTISGVQADDAATYYCLGEFSCSSADCHAFGGGTELEIL
notes: as for B1
B14: M0857 scFv (scFv)
scFv: QQQLVESGGRLVTPGTPLTLTCTASGIDLNSNAMSWVRQGPGKGLEWIGDIWSGGYTDYASWAKGRFTISKTSTTVDLKMTSLTAADTATYFCARDRLAGDGVVDYDLWGQGTLVTISSGGGGSGGGGSGGGGSGGGGASELDMTQTPASVEVAVGGTVTIKCQASQNIYSNLAWYQQKPGQRPKLLIYGASTLASGVPSRFKGSGSGTEYTLTINGVQAADAATYYCQQGFSSSNVDNVFGGGTEVVVK
notes: as for B1
B15: M0852 scFv (scFv)
scFv: QQQLEESGGGLVTPGTPLTLTCTVSGFSLSNYAMGWVRQAPGKGLEWIGTINDGGTAFYANWLKGRFTISRTSTTVDLKITSPTTEDTATYFCARAYGSNGDVYWGYFNLWGQGTLVTVSSGGGGSGGGGSGGGGSGGGGASELVMTQTASPVSAAVGGTVTINCQASQSISSRSLSWYQQKPGQPPKLLIYEASKLASGVPSRFSGSGSGTQFTLTISGVQADDAATYYCQQGYSSSNVDNVFGGGTEVVVK
notes: as for B1
B16: M0851 scFv (scFv)
scFv: QEQLEESGGGLVTPGTPLTLTCTASGFSLSSYAMIWVRQAPGKGLEWIGTINDGGTAFYASWVKGRFTISRTSTTVDLKITSPTTEDTATYFCARAYGSNGDVYWGYVNLWGQGTLVTISSGGGGSGGGGSGGGGSGGGGASELVMTQTPSSVSAAVGGTVTINCQASQNIGSVFAWYQQKPGQPPKLLIYKASSLASGVPSRFKGSGSGTQFTLTISGVEAADAATYYCQQGASSSNVDNIFGGGTEVVVK
notes: as for B1
B17: M0859 scFv (scFv)
scFv: QSVKESGGRLVTPGTPLTLTCTVSGFSLSNYAMSWVRQAPGKGLEYIGIVSSGGTTYYASWAKGRFTISKTSTTVDLKITSPTTEDTATYFCAKDLYYGPTTYSAFNLWGQGTLVTISSGGGGSGGGGSGGGGSGGGGASELVLTQPQSVSGSLGQTVSISCKRARDNIEDYYVHWYQQHPGKTPTIVIHKDDQRPSGVPDRFSGSIDSTSNSASLTITGLLAEDEADYFCQSFDNDASPVFGGGTQLTVTG
notes: as for B1
B18: M0860 scFv (scFv)
scFv: QSVKESGGRLVTPGTPLTLTCTVSGFSLSNYAMSWVRQAPGKGLEYIGIVSSGGTTYYASWAKGRFTISKTSTTVDLKITSPTTEDTATYFCAKDLYYGPTTYSAFNLWGQGTLVTISSGGGGSGGGGSGGGGSGGGGASELVLTQPQSVSGSLGQTVSISCKRARDNIEDYYVHWYQQYPGKTPTIVIYKDDQRPSGVPDRFSGSIDSTSNSASLTITGLLAEDEADYFCQSFDNNANVVFGGGTQLTVTG
notes: as for B1
B19: M0858 scFv (scFv)
scFv: QSVEESGGRLVTPGTPLTLTCTVSGFSLSNYAMSWVRQAPGKGLEYIGIVSSGGTTYYASWAKGRFTISKTSTTVDLKITSPTTEDTATYFCAKDLYYGPTTYSAFNLWGQGTLVTVSSGGGGSGGGGSGGGGSGGGGASELVLTQPQSVSGSLGQTVSISCKRARNNIEDYYVHWYQQHPGRSPTIVIHKDDQRPSGVPDRFSGSIDSTSNSASLTITGLLAEDEADYFCQSFDNNANPVFGGGTQLTVTG
notes: as for B1

Target: T1, HLA-A2/MAGE-A4 complex (HLA-A*02:01 extracellular domain, human β2m, MAGE-A4 peptide 230-239) (human, UniProt P04439 25-299 at identity 0.94); P61769 21-119)
T1 construct: also called MAGE-A4/HLA-A2 complex; pMHC
Experiment: phage display biopanning and screening of the lambda and optimized kappa libraries

Binding result, binds:
B1, B2, B3, B4, B5, B6, B7, B8, B9, B10, B11, B12, B13, B14, B15, B16, B17, B18, B19
